In experiment [1] the target is T1, CD20 on the CD20 expressing human mantle cell lymphoma cell line Jeko-1 (human, UniProt P11836 1-297).
T1 construct: whole, on cells; The target is presented on Jeko-1 cells; also called CD20 antigen
T1 sequence (looked up): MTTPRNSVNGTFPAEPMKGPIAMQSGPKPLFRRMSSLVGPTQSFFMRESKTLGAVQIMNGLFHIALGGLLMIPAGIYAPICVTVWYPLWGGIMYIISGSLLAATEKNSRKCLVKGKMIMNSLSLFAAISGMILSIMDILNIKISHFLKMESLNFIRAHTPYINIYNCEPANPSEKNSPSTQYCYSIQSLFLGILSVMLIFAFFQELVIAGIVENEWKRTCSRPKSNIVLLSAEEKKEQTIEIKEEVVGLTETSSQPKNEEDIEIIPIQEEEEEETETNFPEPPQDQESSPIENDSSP
Put plainly: Cell-based binding to Jeko-1 cells, Meso Scale Discovery electrochemiluminescence, 4PL; % potency relative to reference standard; TG-1101 from 10 L culture at post-shift pH 6.70 +/- 0.10. How it is done:
(§1) In the CD20 binding activity assay, the binding of anti-CD20 antibody to the CD20 expressing human mantle cell lymphoma cell line, Jeko-1, is evaluated using the Meso Scale Discovery (MSD) method. Dose response curves are modeled using 4PL equation, and results are reported as % potency relative to the reference standard.
(§2) Purified antibody (TG-1101) from each of the 10 L bioreactor cultures was also tested in various binding assays (CD20 antigen, Fc gamma receptor, complement component 1q), as well as Fc effector activity assays (ADCC, CDC).

For experiment [2], the target named is T1, CD20 on the CD20 expressing human …. Put plainly: Cell-based binding to Jeko-1 cells, Meso Scale Discovery electrochemiluminescence, 4PL; % potency relative to reference standard; TG-1101 from 10 L culture at post-shift pH 6.80 +/- 0.03. How it is done:
as §1, §2

Experiment [3] concerns the target T2, C1q (complement component 1q) (UniProt P02745 23-245; P02746 28-253; P02747 29-245). In words: C1q ELISA, 4-parameter logistic fit; % potency relative to reference standard; TG-1101 from 10 L culture at post-shift pH 6.80 +/- 0.03. How it is done:
(§3) The binding of anti-CD20 antibody to C1q is evaluated using a C1q ELISA-based method. The dose-response binding is modeled by weighted nonlinear regression using a 4-parameter logistic fit, and the results are reported as % potency relative to the reference standard.
as §2
A general note: ELISA stands for enzyme-linked immunosorbent assay.

For experiment [4], the target named is T1, CD20 on the CD20 expressing human …. Put plainly: Cell-based binding to Jeko-1 cells, Meso Scale Discovery electrochemiluminescence, 4PL; % potency relative to reference standard; TG-1101 from 10 L culture at post-shift pH 6.95 +/- 0.05. How it is done:
as §1, §2

Experiment [5] concerns the target T3, FcγRIIIa-158V (Fc gamma receptor 3a, higher affinity allele) (UniProt P08637 17-208).
T3 construct: Immobilised directly on the SPR chip; also called Fc receptor
Put plainly: SPR, Fc receptor immobilised on chip, antibody injected; 1:1 Langmuir fit; % potency relative to reference standard; TG-1101 from 10 L culture at post-shift pH 6.85 +/- 0.05. The procedure:
(§4) The binding of anti-CD20 antibody samples to FcγRIIIa is evaluated by surface plasmon resonance (SPR). The method follows a direct binding assay methodology where the Fc receptor (ligand) is directly immobilized onto the appropriate flow cell on a sensor chip surface and the analyte is injected over the chip to assess binding. The high affinity allele of FcγRIIIa (158V) is determined.
(§5) The equilibrium dissociation constants (KD) and the relative affinities of each sample relative to the reference standard is determined for each receptor. The rates of change of the SPR signal is analyzed using a 1:1 Langmuir model to yield apparent rate constants for the association and dissociation phases of the reaction, and equilibrium dissociation constants. Results are reported as % potency relative to the reference standard for the FcγRIIIa-158V variant.
as §2
On the technique in general: Surface plasmon resonance follows binding to a sensor surface in real time, without labels.

The target of experiment [6] is T3, FcγRIIIa-158V (Fc gamma receptor 3a, …). In words: SPR, Fc receptor immobilised on chip, antibody injected; 1:1 Langmuir fit; % potency relative to reference standard; TG-1101 from 10 L culture at post-shift pH 6.95 +/- 0.05. The procedure: as §4, §5, §2
Experiment [7] shares this target. In words: SPR, Fc receptor immobilised on chip, antibody injected; 1:1 Langmuir fit; % potency relative to reference standard; TG-1101 from 10 L culture at post-shift pH 6.80 +/- 0.03. The procedure: as §4, §5, §2
Experiment [8] has as its target T2, C1q (complement component 1q). Put plainly: C1q ELISA, 4-parameter logistic fit; % potency relative to reference standard; TG-1101 from 10 L culture at post-shift pH 6.70 +/- 0.10. How it is done:
as §3, §2

Experiment [9] has as its target T1, CD20 on the CD20 expressing human …. Put plainly: Cell-based binding to Jeko-1 cells, Meso Scale Discovery electrochemiluminescence, 4PL; % potency relative to reference standard; TG-1101 from 10 L culture at post-shift pH 6.85 +/- 0.05. How it is done:
as §1, §2

The target of experiment [10] is T2, C1q (complement component 1q). In words: C1q ELISA, 4-parameter logistic fit; % potency relative to reference standard; TG-1101 from 10 L culture at post-shift pH 6.95 +/- 0.05. The procedure:
as §3, §2

Experiment [11] shares this target. Put plainly: C1q ELISA, 4-parameter logistic fit; % potency relative to reference standard; TG-1101 from 10 L culture at post-shift pH 6.85 +/- 0.05. The procedure: as §3, §2
Experiment [12] deals with T3, FcγRIIIa-158V (Fc gamma receptor 3a, …). In words: SPR, Fc receptor immobilised on chip, antibody injected; 1:1 Langmuir fit; % potency relative to reference standard; TG-1101 from 10 L culture at post-shift pH 6.70 +/- 0.10. How it is done: as §4, §5, §2

T3 sequence (P08637 17-208 F176V): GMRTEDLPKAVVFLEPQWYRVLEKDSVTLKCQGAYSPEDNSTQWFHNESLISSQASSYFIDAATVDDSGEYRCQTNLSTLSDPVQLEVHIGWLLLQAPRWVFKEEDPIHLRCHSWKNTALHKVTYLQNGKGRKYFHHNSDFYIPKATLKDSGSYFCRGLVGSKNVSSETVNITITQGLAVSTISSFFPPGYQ
T2 sequence (P02745 23-245, chain 1 of 3): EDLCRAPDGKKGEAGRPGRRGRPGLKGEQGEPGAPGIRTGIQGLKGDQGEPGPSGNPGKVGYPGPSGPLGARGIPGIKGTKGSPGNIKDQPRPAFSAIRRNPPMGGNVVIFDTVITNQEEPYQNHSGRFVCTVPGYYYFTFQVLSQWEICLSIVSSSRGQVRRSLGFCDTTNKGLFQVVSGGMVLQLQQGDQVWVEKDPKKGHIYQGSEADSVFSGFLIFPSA
T2 sequence (P02746 28-253, chain 2 of 3): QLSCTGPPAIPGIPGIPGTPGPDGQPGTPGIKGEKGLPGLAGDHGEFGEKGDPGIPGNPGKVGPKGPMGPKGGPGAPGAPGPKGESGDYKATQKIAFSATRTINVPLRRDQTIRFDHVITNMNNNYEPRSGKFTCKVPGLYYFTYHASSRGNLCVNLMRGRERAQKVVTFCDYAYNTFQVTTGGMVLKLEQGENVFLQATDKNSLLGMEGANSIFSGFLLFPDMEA
T2 sequence (P02747 29-245, chain 3 of 3): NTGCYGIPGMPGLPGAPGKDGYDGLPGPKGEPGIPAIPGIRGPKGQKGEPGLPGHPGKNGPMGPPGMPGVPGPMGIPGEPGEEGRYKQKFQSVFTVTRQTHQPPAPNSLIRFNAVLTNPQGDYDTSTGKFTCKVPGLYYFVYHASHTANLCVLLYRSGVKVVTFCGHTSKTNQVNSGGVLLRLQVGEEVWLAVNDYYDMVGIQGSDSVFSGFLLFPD

B1: TG-1101 (anti-CD20 IgG1 monoclonal antibody expressed in YB2/0 rat hybridoma cells) (antibody)
heavy: not shown
light: QIVLSQSPAILSASPGEKVTMTCRASSSVSYMHWYQQKPGSSPKPWIYATSNLASGVPARFSGSGSGTSYSFTISRVEAEDAATYYCQQWTFNPPTFGGGTRLEIKRTVAAPSVFIFPPSDEQLKSGTASVVCLLNNFYPREAKVQWKVDNALQSGNSQESVTEQDSKDSTYSLSSTLTLSKADYEKHKVYACEVTHQGLSSPVTKSFNRGEC
modifications: N-linked glycans with low fucosylation (18.4-27.5 % fucosylation in the 10 L cultures of Table 7)
notes: also called ublituximab; UBX
As for B1, the “CD20 binding (%) relative to the reference standard” value in [1] is 116%; in experiment [2], 96.8%; in experiment [4] it was 110%; in [9] it was 89.5%. In addition, the “C1q binding (%) relative to the reference standard” value in experiment [3] was 84.5%; in experiment [8], 86.6%; in [10], 76.5%; in experiment [11] it was 81.2%. Besides, the “FcγRIIIa-158V binding (%) relative to the reference standard” value worked out at 108% in experiment [5], 109% in [6], 98.2% in experiment [7] and 120% in [12].

These data come from US20260062495A1 (TG THERAPEUTICS, published 2026).
